Laboratory results reported in the supplement of paper PMC11908140.

B1: library; numbered along this chain (parent)
chain: MRKPRAAVGSGHRKQAASQEGRQKHAKNNSQAKPSACDGLARQPEEVVLQASVSSYHLFRDVAEVTAFRGSLLSWYDQEKRDLPWRRRAEDEMDLDRRAYAVWVSEVMLQQTQVATVINYYTGWMQKWPTLQDLASASLEEVNQLWAGLGYYSRGRRLQEGARKVVEELGGHMPRTAETLQQLLPGVGRYTAGAIASIAFGQATGVVDGNVARVLCRVRAIGADPSSTLVSQQLWGLAQQLVDPARPGDFNQAAMELGATVCTPQRPLCSQCPVESLCRARQRVEQEQLLASGSLSGSPDVEECAPNTGQCHLCLPPSEPWDQTLGVVNFPRKASRKPPREESSATCVLEQPGALGAQILLVQRPNSGLLAGLWEFPSVTWEPSEQLQRKALLQELQRWAGPLPATHLRHLGEVVHTFSHIKLTYQVYGLALEGQTPVTTVPPGARWLTQEEFHTAAVSTAMKKVFRVYQGQQPGTCMGSKRSQVSSPCSRKKPRMGQQVLDNFFRSHISTDAHSLNSAAQ

Variants of: B1
Assay: 8OG:A repair function score (normalized; synonymous = 0, nonsense = -1) (normalized log-likelihood score); higher = more repair activity (WT-like)
Settings: with 8OG:A DNA repair reporter (GFP) in HEK-293 MUTYH KO cells
In short: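 Per-tile Rosace fitness scores were converted to a normalized repair function score anchored on synonymous and nonsense distributions. That scale puts synonymous medians at 0 and nonsense medians at -1. Variants with starting counts under 300 counts per million were discarded. Input came from sorting viable mCherry+ MUTYH knockout HEK-293 cells, carrying lentiviral MUTYH cDNA NNN codon-scan libraries in 10 pg/ml doxycycline and an 8OG:A GFP repair reporter, into GFP+ and GFP− bins at 72 h, three replicates per tile, followed by tile amplicon sequencing.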
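Note: cells sorted at 72 h after reporter transfection.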

Row | Variant | 8OG:A repair function score
1 | Q521L | -0.0455
2 | Q521G | -0.018
3 | Q521N | 0.00751
4 | Q521H | 0.0162
5 | Q521S | -0.00358
6 | Q521V | -0.0096
7 | Q521R | -0.0139
8 | Q521K | -0.0417
9 | Q521E | 0.00527
10 | Q521Y | 0.025
11 | Q521I | -0.0216
12 | Q521W | 0.00491
13 | Q521T | -0.0167
14 | Q521M | 0.0277
15 | Q521P | -0.0312
16 | Q521F | -0.0187
17 | Q521C | 0.00296
18 | Q521A | 0.0136
19 | Q521D | -0.0822
20 | A520H | -0.0164
21 | A520G | 0.00375
22 | A520E | 0.0123
23 | A520Y | 0.0286
24 | A520L | -0.0269
25 | A520D | -0.0192

Row | Variant | 8OG:A repair function score
26 | A520N | 0.0153
27 | A520M | 0.0283
28 | A520W | -0.0228
29 | A520S | -0.0114
30 | A520V | -0.0172
31 | A520F | 0.00424
32 | A520Q | 0.00885
33 | A520C | -0.000175
34 | A520I | -0.0239
35 | A520R | 0.027
36 | A520P | 0.0147
37 | A520K | 0.00969
38 | A520T | -0.000144
39 | A519M | -0.00851
40 | A519V | -0.0127
41 | A519Q | 0.023
42 | A519L | -0.012
43 | A519S | 0.00395
44 | A519N | -0.00616
45 | A519I | -0.0243
46 | A519W | 0.00269
47 | A519D | 0.0164
48 | A519C | -0.00674
49 | A519Y | 0.0154
50 | A519T | -0.0144

Row | Variant | 8OG:A repair function score
51 | A519G | -0.00167
52 | A519P | 0.0175
53 | A519K | 0.0032
54 | A519H | -0.00545
55 | A519R | 0.013
56 | A519F | 0.0212
57 | A519E | 0.0285
58 | L516W | -0.0603
59 | L516Y | 0.0181
60 | L516V | 0.0206
61 | N517Q | 0.00486
62 | N517T | -0.0674
63 | N517P | 0.0174
64 | N517K | -0.077
65 | N517V | -0.00815
66 | N517S | 0.00189
67 | N517F | -0.0651
68 | N517R | 9.97e-05
69 | N517I | -0.00121
70 | N517L | -0.0164
71 | N517A | -0.00673
72 | N517M | 0.0171
73 | N517C | -0.0105
74 | N517H | 0.0285
75 | N517G | 0.0215

Row | Variant | 8OG:A repair function score
76 | N517W | -0.0342
77 | N517E | -0.0872
78 | N517D | 0.0077
79 | N517Y | -0.0106
80 | S518L | -0.0274
81 | S518I | -0.00126
82 | S518E | 0.0194
83 | S518H | -0.0153
84 | S518D | -0.00955
85 | S518T | 0.014
86 | S518W | -0.0247
87 | S518A | 0.00286
88 | S518R | -0.0226
89 | S518G | 0.0246
90 | S518Y | 0.0286
91 | S518F | -0.0829
92 | S518V | -0.01
93 | S518C | -0.0625
94 | S518P | -0.0287
95 | S518N | 0.00686
96 | S518Q | -0.0542
97 | S518K | -0.0195
